# Values of other authors as cited in article PMC11276120.
# Assays:
# PCNA (Homo sapiens) = PCNA (Homo sapiens) (UniProt P12004)
# [1] = target: PCNA (Saccharomyces cerevisiae) (UniProt P15873); experiment: NMR
# Chain of PCNA (Saccharomyces cerevisiae) (P15873 whole entry): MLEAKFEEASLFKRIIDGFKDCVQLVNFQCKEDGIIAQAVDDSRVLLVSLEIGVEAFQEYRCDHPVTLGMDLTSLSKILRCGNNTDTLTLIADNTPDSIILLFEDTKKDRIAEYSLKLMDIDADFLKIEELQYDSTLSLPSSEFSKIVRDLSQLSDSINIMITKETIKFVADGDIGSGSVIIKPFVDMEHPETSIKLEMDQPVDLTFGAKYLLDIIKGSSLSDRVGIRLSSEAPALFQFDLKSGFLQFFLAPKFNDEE
# Chain of p21WAF1/CIP1 PIP-box (P38936 139-160): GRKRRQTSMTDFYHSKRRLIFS
# Chain of Rev1 BRCT (P12689 158-252): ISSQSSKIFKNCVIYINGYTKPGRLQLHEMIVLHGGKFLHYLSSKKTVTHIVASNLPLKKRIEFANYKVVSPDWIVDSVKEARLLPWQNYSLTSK
# Chain of PCNA (Homo sapiens) (P12004 whole entry): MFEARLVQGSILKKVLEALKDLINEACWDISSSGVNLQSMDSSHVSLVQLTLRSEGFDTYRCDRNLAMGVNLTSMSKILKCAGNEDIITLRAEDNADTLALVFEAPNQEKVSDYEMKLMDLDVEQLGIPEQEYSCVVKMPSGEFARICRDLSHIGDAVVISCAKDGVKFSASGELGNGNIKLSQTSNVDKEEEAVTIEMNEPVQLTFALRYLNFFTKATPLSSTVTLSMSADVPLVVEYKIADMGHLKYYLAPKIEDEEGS
Kd (PCNA (Homo sapiens)),Kd [1],Substance
0.08 µM,,p21WAF1/CIP1 PIP-box (from UniProt P38936)
,79 µM,Rev1 BRCT (from UniProt P12689)
